Data as given in patent US20240252641A1 (TCR2 THERAPEUTICS, published 2024).
Residue numbers refer to the chain shown, from its start.

B1: 14-TC6-I-F03 (scFv)
scFv: QVQLVQSGAEVKKPGASVKVSCKASGYTFTGYYMNWVRQAPGQGLEWMAWINPNTGDTNYAQKFQGRVTMTRDTSINTAYIELSRLTSDDTAVYYCARVGDYYDRSGYYRHDAFDIWGQGTMVTVSSGGSGGSGGSGGSSSELTQDPAVSVALGQTVRITCQGDSLRSYYASWYQQKPGQAPVLVIYGKNNRPSGIPDRFSGSNSGNTATLTISGTQAMDEADYYCQAWDSSTVFGGGTKVTVL
notes: His-tagged
B2: 13-TC7-I-E11 (scFv)
scFv: QVQLQQWGAGLLKPSETLSLTCAVYGGSFSGYYWSWIRQPPGKGLEWIGEINHSGSTNYNPSLKSRVTISVDTSKNQFSLKLSSVTAADTAVYYCARSRRPYWYFDLWGRGTLVTVSSGGSGGSGGSGGSQSVLTQPPSVSGAPGQRVTISCTGSSSNIGAGYDVHWYQQLPGTAPKLLIYGDSNRPSGVPDRFSGSGSGTSASLAITGLQAEDEGDYYCQSFDSNLSRYVFGAGTKLTVL
notes: His-tagged
B3: 14-TC4-III-A04 (scFv)
scFv: QVQLVQSGAEVKKPGASVKVSCKASGYTFTGYYMNWVRQAPGQGLEWMAWINPNTGDTNYAQKFQGRVTMTRDTSINTAYIELSRLTSDDTAVYYCARVGDYYDRSGYYRHDAFDIWGQGTMVTVSSGGSGGSGGSGGSSSELTQDPAVSVALGQTVRITCQGDSLRSYYASWYQQKPGQAPVLVIYGKNNRPSGIPDRFSGSSSGNTASLTITGAQAEDEADYYCQAWDSSTGVFGGGTKVTVL
notes: His-tagged
B4: 1-TC4-I-C10 (scFv)
scFv: EVQLVQSGAEVKKPGESLKISCKGSGYSFTSYWIGWVRQMPGKGLEWMGIIYPGDSDTRYSPSFQGQVTISADKSISTAYLQWSSLKASDTAMYYCAISRTESYVMDVWGQGTTVTVSSGGSGGSGGSGGSQSALTQPRSVSGSPGQSVTISCTGTSSDVGGYNYVSWYQQHPGKAPKLMIYDVTNRPSGVPDRFSASKSDNTATLTVSGVQAEDEADYYCSSYAGSHELFGGGTKLTVL
notes: His-tagged; also called 1867
B5: 9A1 (antibody, V domains shown)
VH: QVQLVQSGAEVKKPGASVKVSCKASGYSFTGYYMHWVRQAPGQGLEWMGWINPKSGGTSYAQQFQGRVTMTRDTSMSTVYMELTRLRADDTAVYYCARLYYSGWYGDYWGQGTLVTVSS
VL: DIQMTQSPSSLSASVGDRVTITCQASQDINNYLNWYQQKPGKVPNLLIYDASNLETGVPSRFSGSGSGTDFTFTISSLQPEDIATYYCQQYNNPPITFGQGTRLEIK
notes: alloy mouse hybridoma antibody; also called 9A1H6
B6: 9B2 (antibody, V domains shown)
VH: QLQVVESGGGLMQPGGSLRLSCAASGFTFSGSAMSWVRQAPGKGLEWVSSIYSHSMYTYYADSVKSRFTISTDNAKNTLYLQMNSLKPDDTAVYYCAASSDYEGLFVSWGQGTQVTVSS
VL: QAVLTQPPSLSASPGSSVRLTCTLNSANSVGSYDISWYQQKAGSPPRYLLYYYSDSLSHQGSGVPSRFSGSTDASANAGLLLISGLQPEDEADYYCSAYNRGSHVFGGGTKLTVL
B7: 2F1 (antibody, V domains shown)
VH: EVQLVESGGVVVQPGGSLRLSCAASGFTFDDYTMHWVRQAPGKGLEWVSLVSWDGGSTYYADSVKGRFTTSRDNSKKFLYLQMNRLRTEDTALYFCAIDRAYRPYYYYHMDVWGKGTTVTVSS
VL: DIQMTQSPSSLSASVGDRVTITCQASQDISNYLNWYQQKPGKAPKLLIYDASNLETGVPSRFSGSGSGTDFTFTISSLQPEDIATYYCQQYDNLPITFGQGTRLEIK
notes: alloy mouse hybridoma antibody; also called 2F1F7
B8: 13G6 (antibody, V domains shown)
VH: QVQLVESGGGVVQPGKSLRLSCAASGFTFSNYGIHWVRQAPGKGLEWVAVIWYDGSYKYYADSVKGRFTISRDNSKNTLYLQMNSLRAEDTALYYCARDTVDTYGSFDYWGQGTLVTVSS
VL: DIQLTQSPSFLSASVGDRVTITGRASQGISSYLAWYQQKPGKAPNLLIYAASTLQSGVPSRFSGSGSGTEFTLTISSLQPEDFATYYCQQHNRYPITFGQGTRLEIK
notes: alloy mouse hybridoma antibody; also called 13G6E8
B9: 9A11 (antibody, V domains shown)
VH: QVQLVESGGGVVQPGRSLRLSCAASGFTFSNYGMYWVRQAPGKGLEWVAVIWYDGSKKYYGDSVKGRFTISRDNSKNTLYLQMNSLRAEDTAVYYCARDEDTVMASFDYWGQGTLVTVSS
VL: B8 VL with G23C, G28D, S31I, N45Q, Y87S, H91L, R93S, Q100G, R103K, L104V
notes: alloy mouse hybridoma antibody; also called 9A11E8
B10: 4G7 (antibody, V domains shown)
VH: QVQLVESGGGVVQPGRSLRLSCAASGFTFSSYGLHWVRQAPGKGLDWVAVIWYDGSNKYYVDSVKGRFTISRDNSMNTLFLQMNSLRAEDTAVYYCARDEAAAAGAFDIWGQGTMVTVSS
VL: B8 VL with G23C, N45K, H91L, R93Y, P95S
notes: alloy mouse hybridoma antibody; also called 4G7E8
B11: 1E3 (antibody, V domains shown)
VH: QLQLQESGPGLVKPSETLSLTCTVSGASITSTSYYWNWIRQPPGKGLEWIGRISYSGSTYYNPSLKSRVTISVDTSKNQFSLKLSSVTATDTAVYYCARQIRYNWNPDTFDIWGQGTMVTVSS
VL: EIVMTQSPATLSVSPGERATLSCRASQSLNSNLAWYQQKPAQAPRLLIYGASTRATGIPARFSGSGSGTEFTLTISSLQSEDFAVYYCQQYDNWPLTFGGGTKVEIK
notes: alloy mouse hybridoma antibody; also called 1E3D9
B12: 15F8 (antibody, V domains shown)
VH: EVQLVESGGGVVRPGGSLRLSCAASGFTFDDYGVSWVRQAPGRGLEWVSGINWNGGSTAYADSVKGRFTISRDSAKNSLYLQMDSLRAEDTALYYCAREEGSYYVWYFDIWGRGTLVTVSS
VL: DIQMTQSPSSLSASVGDRVTITCRPSQSISNYLNWYQQKPGKAPKVLIYASFILQSGVPSRFGGSGSGTDFTLTISSLQPEDFATYYCQQSYSNPFTFGPGTKVDIK
notes: alloy mouse hybridoma antibody; also called 15F8D8; 15F8D9
B13: 9A11 (9A11E8) (antibody, V domains shown)
VH: B9 VH
VL: B8 VL with G23C, G28D, S31I, N45Q, Y87S, H91L, R93S, Q100G, R103K, L104V
notes: IgG in hybridoma supernatant
B14: 13G6 (antibody, V domains shown)
VH: B8 VH
VL: B8 VL
notes: IgG in hybridoma supernatant; also called 13G6E8

Biological target: T1, human CD70, recombinant, N-terminally biotinylated (residues 39-193) (human, UniProt P32970 39-193, N-terminal biotin)
T1 construct: range 39-193; the same entry is used there; also called biotinylated human CD70; CD70 biotin
T1 sequence (looked up): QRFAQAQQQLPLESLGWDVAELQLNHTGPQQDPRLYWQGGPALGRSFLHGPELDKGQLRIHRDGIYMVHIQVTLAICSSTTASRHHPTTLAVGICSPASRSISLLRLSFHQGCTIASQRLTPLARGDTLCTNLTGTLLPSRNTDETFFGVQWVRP
Experiment: SPR
In short: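 The scFv antibodies are human and were isolated by panning a naïve human library on the extracellular domain of CD70 (aa39-193). Their affinity (Kd) was measured by surface plasmon resonance analysis. The binding partner was recombinant human antigen biotinylated at the N-terminus.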

Binder | Kd
B1 | 289 nM
B2 | 44.7 nM
B3 | 13.7 nM
B4 | 6.17 nM

Biological target: T2, CD70 on cells (CHO-CD70, JVM-3, U266, Raji, THP-1, T cells) (human, UniProt P32970 1-193)
T2 construct: whole, on cells; also called cell-surface CD70
T2 sequence (looked up): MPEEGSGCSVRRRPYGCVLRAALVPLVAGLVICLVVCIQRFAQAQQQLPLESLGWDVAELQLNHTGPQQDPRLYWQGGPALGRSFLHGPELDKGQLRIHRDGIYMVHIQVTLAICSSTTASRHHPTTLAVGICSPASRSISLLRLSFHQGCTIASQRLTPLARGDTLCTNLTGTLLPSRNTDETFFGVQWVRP
Experiment: 1.25 µg/mL scFv on U266 cells
In short: (§1)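 Tumour cell lines with high CD70 expression (CHO-CD70, JVM3, U266) or low CD70 expression (CHO WT, K562) were used to assess cell binding of human scFv antibodies, with results recorded per line. These antibodies had been selected by panning a naïve human library on the CD70 extracellular domain (aa39-193).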

Binder | cell binding
B1 | 1430
B2 | 32000
B3 | 20400
B4 | 48800

Biological target: T2, CD70 on cells (CHO-CD70, JVM-3, U266, …)
Experiment: on U266 cells

Binder | cell binding
B5 | 324000
B6 | 8040
B7 | 30600
B8 | 389000
B9 | 351000
B10 | 310000
B11 | 106000
B12 | 213000

Biological target: T1, human CD70, recombinant, N-terminally …
Experiment: CD27 blocking ELISA, 3 µM scFv, anti-His/HRP
In short: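 Plate-bound CD70 was either exposed to CD27 and His-tagged scFv added together, or pre-incubated with CD27 for 30 minutes before more CD27 and scFv were added. scFv still bound to CD70 was detected with anti-His HRP.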

Binder | anti His/HRP
B1 | 2.47
B2 | 2.29
B3 | 2.81
B4 | 2.83

Biological target: T3, CD70 (UniProt P32970 39-193, limits assumed)
T3 construct: also called CD70 (100 nM)
T3 sequence (looked up): T1 sequence (looked up)
Experiment: Octet (BLI); mAb binding to CD70 with CD27 (competitor CD27)

Binder | CD27:CD70 Interaction Neutralization of mAb Binding
B13 | 0.0777
B14 | 0.0585

Biological target: T2, CD70 on cells (CHO-CD70, JVM-3, U266, …)
Experiment: 1.25 µg/mL scFv on JVM-3 cells
In short: as §1

Binder | cell binding
B1 | 1880
B2 | 80500
B3 | 17000
B4 | 73300

Biological target: T3, CD70
Experiment: Octet (BLI); hybridoma mAb, CD70 at 100 nM

Binder | Kd | Response | koff | kon
B13 | 0.00246 nM | 0.429 | 3.36e-07 s⁻¹ | 137000 M⁻¹ s⁻¹
B14 | 0.00342 nM | 0.409 | 3.3e-07 s⁻¹ | 96400 M⁻¹ s⁻¹

Biological target: T2, CD70 on cells (CHO-CD70, JVM-3, U266, …)
Experiment: 1.25 µg/mL scFv on CHO-CD70 cells
In short: as §1

Binder | cell binding
B1 | 33400
B2 | 532000
B3 | 610000
B4 | 978000

Biological target: T2, CD70 on cells (CHO-CD70, JVM-3, U266, …)
Experiment: on JVM-3 cells

Binder | cell binding
B5 | 401000
B6 | 8940
B7 | 31600
B8 | 479000
B9 | 410000
B10 | 322000
B11 | 121000
B12 | 234000

Biological target: T2, CD70 on cells (CHO-CD70, JVM-3, U266, …)
Experiment: on Raji cells

Binder | cell binding
B5 | 139000
B6 | 7310
B7 | 12100
B8 | 144000
B9 | 145000
B10 | 103000
B11 | 38800
B12 | 85100

Biological target: T1, human CD70, recombinant, N-terminally …
Experiment: CD27 blocking ELISA, 3 µM scFv, strep/HRP

Binder | strep/HRP
B1 | 0.954
B2 | 1.42
B3 | 0.359
B4 | 0.075
